Measured values from patent US20250009878A1.

Molecular target: WT MCT1/BSG-2 complex (mouse) (mouse) (UniProt P53986)
Assay: cell-based or functional assay

UniProt P53986, sequence (P53986 whole entry, chain 1 of 2): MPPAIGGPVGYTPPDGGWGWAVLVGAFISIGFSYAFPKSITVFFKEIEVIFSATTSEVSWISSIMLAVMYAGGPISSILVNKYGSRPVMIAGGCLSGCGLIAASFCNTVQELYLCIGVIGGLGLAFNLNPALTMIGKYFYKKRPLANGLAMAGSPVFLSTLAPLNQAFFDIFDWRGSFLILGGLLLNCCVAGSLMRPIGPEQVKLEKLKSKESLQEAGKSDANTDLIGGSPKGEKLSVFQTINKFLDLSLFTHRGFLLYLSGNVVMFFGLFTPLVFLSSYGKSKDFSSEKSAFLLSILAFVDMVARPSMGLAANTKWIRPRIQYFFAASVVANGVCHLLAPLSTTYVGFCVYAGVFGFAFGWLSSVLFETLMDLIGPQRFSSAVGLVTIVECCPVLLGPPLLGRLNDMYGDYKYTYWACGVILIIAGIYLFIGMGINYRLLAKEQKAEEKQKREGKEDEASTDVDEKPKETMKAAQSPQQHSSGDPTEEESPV
UniProt P53986, sequence (P18572 other isoform, or with tags, fused parts or gaps, chain 2 of 2, further chain): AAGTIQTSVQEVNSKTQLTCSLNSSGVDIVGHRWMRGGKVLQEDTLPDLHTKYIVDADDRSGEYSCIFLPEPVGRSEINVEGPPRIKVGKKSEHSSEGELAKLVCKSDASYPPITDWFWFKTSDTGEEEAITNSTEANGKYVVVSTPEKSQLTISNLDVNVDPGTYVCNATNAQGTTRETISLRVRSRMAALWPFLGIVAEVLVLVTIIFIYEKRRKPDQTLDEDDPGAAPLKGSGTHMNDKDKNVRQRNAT

B1: WZHAb10 (antibody, human IgG1, kappa, V domains shown)
VH: QVQLVQSGAEVKKPGASVKVSCKASGYTFTNYWIHWVRQAPGQGLEWMGMIHPNSGSINYNEKFKTRVTMTRDTSTSTVYMELSSLRSEDTAVYYCARVGSGSLDYWGQGTLVTVSS
VL: EIVLTQSPATLSLSPGERATLSCRASQSISDYLHWYQQKPGQAPRLLIKYVSQSISGIPARFSGSGSGTYFTLTISSLEPEDVAVYYCQNGEEAPYTFGQGTKLEIKR
Question: B1 was tested. Which decrease in transport activity (H+ influx, HPTS proteoliposome flux assay) did it give?
Answer: 75%
